From patent US20260055183A1

Target: triggering receptor expressed on myeloid cells 1 (TREM-1), human, on monocytes / PBMCs of healthy donors (human) (UniProt Q9NP99)
Experiment: cell-based or functional assay

peptidoglycan-recognition-protein 1 (PGLYRP1), sequence (O75594 22-196 limits assumed): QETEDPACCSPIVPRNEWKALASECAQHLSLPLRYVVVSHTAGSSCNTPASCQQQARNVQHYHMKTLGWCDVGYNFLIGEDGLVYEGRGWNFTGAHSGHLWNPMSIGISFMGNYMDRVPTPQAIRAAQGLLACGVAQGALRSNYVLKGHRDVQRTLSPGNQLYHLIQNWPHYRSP
triggering receptor expressed on myeloid cells 1 (TREM-1), human, on monocytes / PBMCs of healthy donors (human), sequence (Q9NP99 21-234 limits assumed): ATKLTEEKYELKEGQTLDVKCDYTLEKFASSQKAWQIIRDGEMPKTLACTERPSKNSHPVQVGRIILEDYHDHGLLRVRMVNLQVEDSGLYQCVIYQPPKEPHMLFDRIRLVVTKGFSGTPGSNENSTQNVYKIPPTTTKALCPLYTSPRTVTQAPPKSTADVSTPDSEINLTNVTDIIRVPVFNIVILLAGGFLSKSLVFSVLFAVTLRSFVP

How did the Log2FC P + L vs P, ACOT7 mRNA in monocytes (log2 fold change) turn out when “peptidoglycan-recognition-protein 1 (PGLYRP1) (from UniProt O75594 22-196) (ligand)” was run?
The Log2FC P + L vs P, ACOT7 mRNA in monocytes (log2 fold change) was 2.23.

And the Log2FC P + L vs P, CD52 mRNA in monocytes (log2 fold change)?
Its Log2FC P + L vs P, CD52 mRNA in monocytes (log2 fold change) is 2.28.

What about the Log2FC P + L vs P, CD55 mRNA in monocytes (log2 fold change) of the same substance?
The Log2FC P + L vs P, CD55 mRNA in monocytes (log2 fold change) was 2.39.

And the Log2FC P + L vs P, CDKN1A mRNA in monocytes (log2 fold change)?
Its Log2FC P + L vs P, CDKN1A mRNA in monocytes (log2 fold change) is 2.3.

What about the Log2FC P + L vs P, CHI3L1 mRNA in monocytes (log2 fold change) of the same substance?
The Log2FC P + L vs P, CHI3L1 mRNA in monocytes (log2 fold change) was 5.62.

And the Log2FC P + L vs P, CISH mRNA in monocytes (log2 fold change)?
Its Log2FC P + L vs P, CISH mRNA in monocytes (log2 fold change) is 3.28.

And the Log2FC P + L vs P, CLEC12A mRNA in monocytes (log2 fold change)?
Its Log2FC P + L vs P, CLEC12A mRNA in monocytes (log2 fold change) is 2.94.

What about the Log2FC P + L vs P, DHRS9 mRNA in monocytes (log2 fold change) of the same substance?
Its Log2FC P + L vs P, DHRS9 mRNA in monocytes (log2 fold change) is 3.22.

And the Log2FC P + L vs P, EHD1 mRNA in monocytes (log2 fold change)?
The Log2FC P + L vs P, EHD1 mRNA in monocytes (log2 fold change) was 3.37.

And the Log2FC P + L vs P, FAM129A mRNA in monocytes (log2 fold change)?
Its Log2FC P + L vs P, FAM129A mRNA in monocytes (log2 fold change) is 2.31.

And the Log2FC P + L vs P, GALNT6 mRNA in monocytes (log2 fold change)?
The Log2FC P + L vs P, GALNT6 mRNA in monocytes (log2 fold change) was 2.09.

And the Log2FC P + L vs P, IFNLR1 mRNA in monocytes (log2 fold change)?
The Log2FC P + L vs P, IFNLR1 mRNA in monocytes (log2 fold change) was 3.07.

What about the Log2FC P + L vs P, MFSD12 mRNA in monocytes (log2 fold change) of the same substance?
The Log2FC P + L vs P, MFSD12 mRNA in monocytes (log2 fold change) was 3.07.

And the Log2FC P + L vs P, MTMR11 mRNA in monocytes (log2 fold change)?
Its Log2FC P + L vs P, MTMR11 mRNA in monocytes (log2 fold change) is 2.58.

And the Log2FC P + L vs P, NAMPT mRNA in monocytes (log2 fold change)?
The Log2FC P + L vs P, NAMPT mRNA in monocytes (log2 fold change) was 3.47.

What about the Log2FC P + L vs P, PIM2 mRNA in monocytes (log2 fold change) of the same substance?
Its Log2FC P + L vs P, PIM2 mRNA in monocytes (log2 fold change) is 2.71.

What about the Log2FC P + L vs P, PLK3 mRNA in monocytes (log2 fold change) of the same substance?
Its Log2FC P + L vs P, PLK3 mRNA in monocytes (log2 fold change) is 2.67.

What about the Log2FC P + L vs P, SLC27A3 mRNA in monocytes (log2 fold change) of the same substance?
The Log2FC P + L vs P, SLC27A3 mRNA in monocytes (log2 fold change) was 2.74.

What about the Log2FC P + L vs P, STARD4 mRNA in monocytes (log2 fold change) of the same substance?
The Log2FC P + L vs P, STARD4 mRNA in monocytes (log2 fold change) was 2.56.

What about the Log2Fc.P + L vs P, CCL1 mRNA in monocytes (log2 fold change) of the same substance?
The Log2Fc.P + L vs P, CCL1 mRNA in monocytes (log2 fold change) was 8.39.

And the Log2Fc.P + L vs P, CCL20 mRNA in monocytes (log2 fold change)?
Its Log2Fc.P + L vs P, CCL20 mRNA in monocytes (log2 fold change) is 8.73.

What about the Log2Fc.P + L vs P, CXCL3 mRNA in monocytes (log2 fold change) of the same substance?
The Log2Fc.P + L vs P, CXCL3 mRNA in monocytes (log2 fold change) was 7.21.

And the Log2Fc.P + L vs P, F3 mRNA in monocytes (log2 fold change)?
The Log2Fc.P + L vs P, F3 mRNA in monocytes (log2 fold change) was 7.55.

What about the Log2Fc.P + L vs P, IL6 mRNA in monocytes (log2 fold change) of the same substance?
Its Log2Fc.P + L vs P, IL6 mRNA in monocytes (log2 fold change) is 9.16.

And the Log2Fc.P + L vs P, IL23A mRNA in monocytes (log2 fold change)?
The Log2Fc.P + L vs P, IL23A mRNA in monocytes (log2 fold change) was 6.96.

What about the Log2Fc.P + L vs P, IL24 mRNA in monocytes (log2 fold change) of the same substance?
Its Log2Fc.P + L vs P, IL24 mRNA in monocytes (log2 fold change) is 6.66.

What about the Log2Fc.P + L vs P, IL36G mRNA in monocytes (log2 fold change) of the same substance?
The Log2Fc.P + L vs P, IL36G mRNA in monocytes (log2 fold change) was 7.91.

What about the Log2Fc.P + L vs P, ILIA (Interleukin 1, alpha) mRNA in monocytes (log2 fold change) of the same substance?
Its Log2Fc.P + L vs P, ILIA (Interleukin 1, alpha) mRNA in monocytes (log2 fold change) is 6.86.

And the Log2Fc.P + L vs P, ILIRN (Interleukin 1 receptor antagonist) mRNA in monocytes (log2 fold change)?
Its Log2Fc.P + L vs P, ILIRN (Interleukin 1 receptor antagonist) mRNA in monocytes (log2 fold change) is 7.28.

What about the Log2Fc.P + L vs P, INHBA mRNA in monocytes (log2 fold change) of the same substance?
Its Log2Fc.P + L vs P, INHBA mRNA in monocytes (log2 fold change) is 8.04.

And the Log2Fc.P + L vs P, MMP1 mRNA in monocytes (log2 fold change)?
The Log2Fc.P + L vs P, MMP1 mRNA in monocytes (log2 fold change) was 9.31.

What about the Log2Fc.P + L vs P, MMP7 mRNA in monocytes (log2 fold change) of the same substance?
The Log2Fc.P + L vs P, MMP7 mRNA in monocytes (log2 fold change) was 8.32.

And the Log2Fc.P + L vs P, MMP10 mRNA in monocytes (log2 fold change)?
The Log2Fc.P + L vs P, MMP10 mRNA in monocytes (log2 fold change) was 8.47.

What about the Log2Fc.P + L vs P, OCSTAMP mRNA in monocytes (log2 fold change) of the same substance?
Its Log2Fc.P + L vs P, OCSTAMP mRNA in monocytes (log2 fold change) is 7.62.

What about the Log2Fc.P + L vs P, PTGS2 mRNA in monocytes (log2 fold change) of the same substance?
The Log2Fc.P + L vs P, PTGS2 mRNA in monocytes (log2 fold change) was 8.32.

What about the Log2Fc.P + L vs P, RGS16 mRNA in monocytes (log2 fold change) of the same substance?
Its Log2Fc.P + L vs P, RGS16 mRNA in monocytes (log2 fold change) is 7.52.

What about the Log2Fc.P + L vs P, SCG5 mRNA in monocytes (log2 fold change) of the same substance?
The Log2Fc.P + L vs P, SCG5 mRNA in monocytes (log2 fold change) was 8.09.

And the Log2Fc.P + L vs P, TFPI2 mRNA in monocytes (log2 fold change)?
Its Log2Fc.P + L vs P, TFPI2 mRNA in monocytes (log2 fold change) is 7.57.

What about the Log2Fc.P + L vs P, TNFSF15 mRNA in monocytes (log2 fold change) of the same substance?
Its Log2Fc.P + L vs P, TNFSF15 mRNA in monocytes (log2 fold change) is 8.65.
